From patent US20220031841A1 (ABSCI, published 2022)

Assays:
Test in all cases: HuProt protein array, F635 z-score
[1] = molecular target: T1, Cancer/testis antigen 1 (CTAG1A) (human, UniProt P78358 1-180)
T1 construct: The array carries full-length recombinant human proteins expressed in S. cerevisiae; also called NY-ESO-1; Cancer/Testis Antigen 1A
Description: (§1) Large scale protein arrays are versatile and sensitive platforms for antibody specificity evaluation. They can be used for the evaluation of protein binding or affinity reagents that are widely employed in research and clinical applications. The microarray used in our target identification experiment provides the largest number of unique, full-length, individually purified human proteins on a single microscope slide. This allows thousands of interactions to be profiled in a high-throughput manner. The hill-length recombinant proteins are expressed in the yeast S. cerevisiae, purified, and printed on glass slides in duplicate along with a set of control proteins (GST, BSA, histones, IgG, etc.). Such microarray is not restricted to a particular type of surface coating, although the default is glass coated with ultra-thin nitrocellulose film for the non-covalent, yet irreversible, capture of active proteins to the surface. Fourteen Protein arrays were used for the antibody cross-reactivity assay of the samples. The antibodies were probed at […] on the arrays and incubated at room temperature for 1 hour. After probing, the arrays were washed according to the protocol and probed with Alexa-647-anti-human IgG […] specific secondary antibodies under conditions optimized for signal detection. The antibody-antigen binding score was calculated for each protein represented on the array and expressed as z-scores.
(§2) Antibody samples are probed on native HuProt arrays at 1 μg/ml and incubated at room temperature for 1 hour. After probing, the arrays are washed according to the standard protocols and probed with Alexa-647-anti-human IgG Fc gamma specific secondary antibodies under conditions optimized for signal detection.
(§3) Z score is the average Z score of the duplicate spots of a given protein (each protein is printed in duplicate on a HuProt™ array). The Z score of each spot on a given array is calculated according to the equation: […]

[2] = molecular target: T2, Src homology 2 (SH2) domain containing inositol polyphosphate 5-phosphatase 1 (SHIP1) (human, UniProt Q92835 1-1189)
T2 construct: The array carries full-length recombinant human proteins expressed in S. cerevisiae, purified and printed on glass slides; also called INPP5D; INPP5D/SHIP1
T2 sequence: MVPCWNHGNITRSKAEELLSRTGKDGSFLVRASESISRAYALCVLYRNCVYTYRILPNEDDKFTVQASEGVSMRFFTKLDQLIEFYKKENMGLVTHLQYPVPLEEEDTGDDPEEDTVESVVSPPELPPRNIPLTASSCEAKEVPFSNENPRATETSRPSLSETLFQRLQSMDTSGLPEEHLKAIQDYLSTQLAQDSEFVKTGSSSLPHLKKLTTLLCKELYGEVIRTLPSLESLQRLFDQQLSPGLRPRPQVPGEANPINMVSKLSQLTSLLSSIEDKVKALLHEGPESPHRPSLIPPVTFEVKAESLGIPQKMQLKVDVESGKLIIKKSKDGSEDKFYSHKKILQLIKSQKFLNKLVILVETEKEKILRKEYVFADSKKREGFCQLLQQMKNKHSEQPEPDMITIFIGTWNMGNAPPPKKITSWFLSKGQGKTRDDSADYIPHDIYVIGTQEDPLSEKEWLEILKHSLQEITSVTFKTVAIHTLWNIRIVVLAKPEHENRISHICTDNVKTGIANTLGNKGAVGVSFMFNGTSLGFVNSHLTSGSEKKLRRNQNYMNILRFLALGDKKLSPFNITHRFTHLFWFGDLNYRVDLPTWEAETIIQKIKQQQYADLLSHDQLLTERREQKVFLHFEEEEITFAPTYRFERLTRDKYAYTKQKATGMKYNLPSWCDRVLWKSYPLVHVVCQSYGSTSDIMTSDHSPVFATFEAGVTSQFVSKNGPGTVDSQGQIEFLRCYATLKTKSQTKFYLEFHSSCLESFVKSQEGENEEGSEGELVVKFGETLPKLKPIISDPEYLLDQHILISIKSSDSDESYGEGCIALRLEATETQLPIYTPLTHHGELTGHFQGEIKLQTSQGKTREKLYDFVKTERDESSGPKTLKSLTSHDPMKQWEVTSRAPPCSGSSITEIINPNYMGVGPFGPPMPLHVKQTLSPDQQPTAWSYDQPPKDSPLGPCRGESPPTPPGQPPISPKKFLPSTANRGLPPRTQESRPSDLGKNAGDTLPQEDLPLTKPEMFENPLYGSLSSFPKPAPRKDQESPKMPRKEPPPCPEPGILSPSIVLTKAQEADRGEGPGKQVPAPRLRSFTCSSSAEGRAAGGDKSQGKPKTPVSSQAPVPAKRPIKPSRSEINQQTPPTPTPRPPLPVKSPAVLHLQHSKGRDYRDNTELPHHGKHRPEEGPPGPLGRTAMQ
Description: as §1, §2, §3

[3] = molecular target: T3, Chromobox protein homolog 1 (CBX1) (human, UniProt P83916 1-185)
T3 construct: The array carries full-length recombinant human proteins expressed in S. cerevisiae; also called Human Chromobox protein homolog 1
T3 sequence (P83916 whole entry): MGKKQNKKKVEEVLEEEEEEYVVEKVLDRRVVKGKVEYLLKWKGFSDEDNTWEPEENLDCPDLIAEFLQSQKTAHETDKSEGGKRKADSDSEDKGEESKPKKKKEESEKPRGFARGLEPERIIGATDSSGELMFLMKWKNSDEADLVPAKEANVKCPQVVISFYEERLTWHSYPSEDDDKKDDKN
Description: as §1, §2, §3

[4] = molecular target: T4, Alpha-taxilin (TXLNA) also known as interleukin-14A (human, UniProt P40222 1-546)
T4 construct: The array carries full-length recombinant human proteins expressed in S. cerevisiae; also called IL-14A; TXLNA/IL-14A
T4 sequence (P40222 whole entry): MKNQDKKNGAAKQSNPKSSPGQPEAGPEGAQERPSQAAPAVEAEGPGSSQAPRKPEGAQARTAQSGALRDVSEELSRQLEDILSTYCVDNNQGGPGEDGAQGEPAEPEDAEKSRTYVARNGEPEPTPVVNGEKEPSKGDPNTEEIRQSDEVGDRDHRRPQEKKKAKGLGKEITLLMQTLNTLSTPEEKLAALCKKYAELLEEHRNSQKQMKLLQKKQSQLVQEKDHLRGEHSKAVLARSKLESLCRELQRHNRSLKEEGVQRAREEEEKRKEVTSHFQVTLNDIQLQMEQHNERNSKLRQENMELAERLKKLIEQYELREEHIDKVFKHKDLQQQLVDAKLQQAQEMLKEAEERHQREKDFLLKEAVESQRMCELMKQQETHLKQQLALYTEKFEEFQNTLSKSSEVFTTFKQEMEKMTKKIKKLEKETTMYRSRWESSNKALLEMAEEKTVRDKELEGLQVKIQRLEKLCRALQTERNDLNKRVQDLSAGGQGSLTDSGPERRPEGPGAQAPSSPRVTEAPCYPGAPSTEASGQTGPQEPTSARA
Description: as §1, §2, §3

[5] = molecular target: T5, Inorganic pyrophosphatase (PPA1) (human, UniProt Q15181 2-289)
T5 construct: The array carries full-length recombinant human proteins expressed in S. cerevisiae; also called Human PPA1
T5 sequence: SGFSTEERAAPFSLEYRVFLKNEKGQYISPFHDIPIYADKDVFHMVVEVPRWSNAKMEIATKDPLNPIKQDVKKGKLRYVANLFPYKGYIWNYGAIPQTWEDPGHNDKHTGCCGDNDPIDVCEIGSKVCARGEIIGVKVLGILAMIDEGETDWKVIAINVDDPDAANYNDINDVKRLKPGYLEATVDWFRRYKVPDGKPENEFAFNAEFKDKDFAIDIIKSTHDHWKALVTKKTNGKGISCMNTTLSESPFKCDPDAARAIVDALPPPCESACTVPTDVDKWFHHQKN
Description: as §1, §2, §3

[6] = molecular target: T6, Chromobox protein homolog 5 (CBX5) (human, UniProt P45973 1-191)
T6 construct: The array carries full-length recombinant human proteins expressed in S. cerevisiae; also called Human Chromobox protein homolog 5
T6 sequence (P45973 whole entry): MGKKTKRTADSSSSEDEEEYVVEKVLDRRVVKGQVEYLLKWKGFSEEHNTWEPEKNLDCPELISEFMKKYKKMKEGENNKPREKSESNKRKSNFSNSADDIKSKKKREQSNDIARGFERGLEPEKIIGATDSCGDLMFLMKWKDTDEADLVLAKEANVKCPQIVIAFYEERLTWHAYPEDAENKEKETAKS
Description: as §1, §2, §3

[7] = molecular target: T7, Melanoma-associated antigen 3 (MAGE-A3) (human, UniProt P43357 1-314)
T7 construct: The array carries full-length recombinant human proteins expressed in S. cerevisiae; also called Human MAGE-A3
T7 sequence (P43357 whole entry): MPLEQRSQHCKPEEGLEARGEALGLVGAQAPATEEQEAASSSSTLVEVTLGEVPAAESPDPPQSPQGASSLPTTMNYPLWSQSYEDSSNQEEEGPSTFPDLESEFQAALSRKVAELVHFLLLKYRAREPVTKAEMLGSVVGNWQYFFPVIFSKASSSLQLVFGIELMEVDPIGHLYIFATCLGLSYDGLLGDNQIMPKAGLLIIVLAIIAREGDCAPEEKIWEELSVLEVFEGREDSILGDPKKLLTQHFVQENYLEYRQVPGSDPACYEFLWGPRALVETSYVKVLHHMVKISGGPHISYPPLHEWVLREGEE
Description: as §1, §2, §3

Measured: binding result

T1 sequence (P78358 whole entry): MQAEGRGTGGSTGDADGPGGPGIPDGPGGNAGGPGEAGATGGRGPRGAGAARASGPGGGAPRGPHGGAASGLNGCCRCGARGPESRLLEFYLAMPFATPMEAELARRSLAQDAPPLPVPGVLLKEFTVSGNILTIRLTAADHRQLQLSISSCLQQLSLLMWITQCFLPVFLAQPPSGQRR

B1: TMEL1014 (antibody, V domains shown)
VH: SVQLVESGGGVVQPGRSLRLSCAASGFTFSSYTMHWVRQAPGKGLEWVALISYDGSNKYYADSVKGRFTISRDNPKNTLYLQMNSLRVEDTAVYYCARDWTLGYWGQGTLVTVSS
VL: VSSELTQDPAVSVALGQTVRITCQGDSLRNYYANWYQQKPGQAPILVIYDKNNRPSGIPDRFSGSSSGNTASLTITGAQAEDEADYYCNSRDSSGYHLVFGGGTKLTVLG
notes: It was detected with an anti-human IgG Fc gamma secondary antibody
no binding (tested: 1 µg/ml): [1] | [2] | [3] | [4] | [5] | [6]

B2: TMEL1010 (antibody, V domains shown)
VH: QVQLVQSGAEVKKPGASVKVSCKASGYTFSSYGISWVRQAPGQGLEWMGWISAYNGNTNYAKKLQGRVTMTTDTSTSTAYLELRSLRSDDTAVYYCARGDGPFDYWGQGTLVTVSS
VL: EIVMTQSPATLSVSPGERATLSCWASQSVSSSLAWYQQKPGQAPRLLMYGASNRATGIPARFSGSGSGTEFTLTISSLQSEDFAVYYCQQYNKWPPDTFGQGTKLEIKR
notes: as for B1
no binding (tested: 1 µg/ml): [1] | [2] | [3] | [4] | [6] | [7]

B3: TMEL1007 (antibody, V domains shown)
VH: HVHLVQSGAEVKKPGSSVKVSCTASGGSFSSNPISWVRQAPGHGLQWMGGFVPLFGTANYAPSFHGRLTITADESTSTTYMELNSLRSEDSAVYYCARDFNWNFDFWGQGTLVTVSS
VL: QSALTQPASVSGSPGQSITISCTGTSSDIGSYNLVSWYRQYPGKAPKLMIYEVNKRPSGVSNRFSGSKSGNTASLTISGLQAEDEADYYCCSYAGTTTFVIFGRGTKLTVLG
notes: as for B1
no binding (tested: 1 µg/ml): [1] | [2] | [3] | [4] | [5] | [6] | [7]

B4: TMEL1011 (antibody, V domains shown)
VH: PVQLVQSGAEVKKPGSSVKVSCKASGGTFSSYSFNWVRQAPGQGLEWMARIIPILGLANYAQKFQGRVTLTADESTSTAYMELSSLRSEDTAIFYCAGMVLGQLGFDPWGQGTLVTVSS
VL: QFMLTQPHSVSESPGRTVTISCTRSSGSIARNYVHWYQHRPGSSPTTVIYEDDQRPSGVPDRFSGSIDSSSNSASLTISGLKPEDEADYFCQSYDSNIWVFGGGTKLTVLG
notes: as for B1
no binding (tested: 1 µg/ml): [1] | [2] | [3] | [5] | [6] | [7]

B5: TMEL1008 (antibody, V domains shown)
VH: QVQLVQSGAEVKKPGSSVKVSCKASGGTFNRDGIIWVRQAPGQGLEWMGRIIPILGIANYAQKFQGRVTIIADKSTSTAYMELSSLRSEDTAVYYCARESEVGRGMDVWGQGTTVTVSS
VL: ASALTQPASVSGSPGQSITISCTGTSSDVGDYNYVSWYQQHPGKAPKLMIYDVSNRPSGVSHRFSGSKSGNTASLTISGLQAEDEADYYCSSYTISSTLGVFGPGTKVTVLG
notes: as for B1
no binding (tested: 1 µg/ml): [1] | [2] | [3] | [4] | [5] | [6]

B6: TMEL1013 (antibody, V domains shown)
VH: PVQLVQSGAEVKKPGSSVKVSCKASGGTFSSYTINWVRQAPGQGLEWMGRIIPILGVANYAQKFQGRVTITADKSTSTAYMDLSSLRSEDTAVYYCAREWERAFDYWGQGTLVTVSS
VL: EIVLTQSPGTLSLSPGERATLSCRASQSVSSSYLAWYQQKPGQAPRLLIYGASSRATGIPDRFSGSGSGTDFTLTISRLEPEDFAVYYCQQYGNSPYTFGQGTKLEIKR
no binding (tested: 1 µg/ml): [1] | [2] | [3] | [4] | [5] | [6]

B7: TMEL1009 (antibody, V domains shown)
VH: PVQLVQSGAEVKKPGSSVKVSCRASGGTFSNYGLNWVRQAPGQGLEWMGGIIPIFGSVNYAQKFQDRVTITADESTSTTYMDLNSLRSEDTAVYYCATERGHNMERAFDFWGQGTLVTVSS
VL: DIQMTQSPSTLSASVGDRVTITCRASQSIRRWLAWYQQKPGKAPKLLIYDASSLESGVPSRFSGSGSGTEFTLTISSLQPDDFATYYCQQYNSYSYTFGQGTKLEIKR
no binding (tested: 1 µg/ml): [1] | [2] | [3] | [4] | [5] | [6]
